Laboratory results: paper PMC4498709
Each block holds one substance with its values, some of them ahead of it.

Experiments:
[1] = molecular target: Chaetomium thermophilum Mex67 LRR-NTF2L (ctMex67^LRR-NTF2L; residues 180-556) (Chaetomium thermophilum); test: SEC-MALS; ctMex67^LRR-NTF2L alone; single peak; dimer
[2] = tested on: ctMex67 deltaN (with Mtr2);ctMtr2 (Chaetomium thermophilum;Chaetomium thermophilum); test: fluorescence anisotropy; conditions: 20 mM Tris-HCl pH 8.0, 50 mM NaCl, 10 nM DY-547-labelled RNA, serially diluted protein, temperature not stated
[3] = tested on: ctMex67 deltaUBA (deltaN deltaUBA);ctMtr2 (Chaetomium thermophilum;Chaetomium thermophilum); test: fluorescence anisotropy; conditions: 20 mM Tris-HCl pH 8.0, 50 mM NaCl, 10 nM DY-547-labelled RNA, serially diluted protein; temperature not stated
[4] = tested on: ctMex67 LRR-NTF2L (RRM deletion);ctMtr2 (Chaetomium thermophilum;Chaetomium thermophilum); test: fluorescence anisotropy; conditions: 20 mM Tris-HCl pH 8.0, 50 mM NaCl, 10 nM DY-547-labelled RNA, serially diluted protein; temperature not stated
[5] = tested on: ctMex67 RRM-LRR (NTF2L-Mtr2 deletion) (Chaetomium thermophilum); test: fluorescence anisotropy; conditions: 20 mM Tris-HCl pH 8.0, 50 mM NaCl, 10 nM DY-547-labelled RNA, serially diluted protein; temperature not stated

- stoichiometry N [1]: 2
Substance: Chaetomium thermophilum Mex67 LRR-NTF2L (ctMex67^LRR-NTF2L; residues 180-556) (domain or fragment)

Substance: GGGGGGGGGGGGGGG [polyG15]
- Kd [2]: 310 nM

Substance: UUUUUUUUUUUUUUU [polyU15]
- Kd ([2]; printed '930 and 6.0 µM, respectively', 930 read as nM): 930 nM

Substance: CCCCCCCCCCCCCCC [polyC15]
- Kd [2]: 6000 nM

Substance: AAAAAAAAAAAAAAA [polyA15]
- Kd [3]: 370 nM
- Kd [4]: 6800 nM
- Kd [5]: 5500 nM
- Kd [2]: 350 nM
